This is an account of results in US20130177598A1, “DISCRETE SIZE AND SHAPE SPECIFIC PHARMACEUTICAL ORGANIC NANOPARTICLES” (The University of North Carolina at Chapel Hill, priority 2007, published 2013).

A short description of this data set: Enzymatic activity assay of free horseradish peroxidase and PRINT particles thereof. It counts as biochemical. Particulars: 10 ng/mL-10 mg/mL in buffer; compared with free horseradish peroxidase. As for the experimental part:
A standard enzymatic assay of horseradish peroxidase (reference P6782; Sigma Aldrich) was conduted on free horseradish peroxidase and PRINT particles thereof in the concentration range of 10 ng/mL-10 mg/mL in buffer. The substrates used were hydrogen peroxide and pyrogallol. […] See, FIG. 32.

For “horseradish peroxidase PRINT particles: PRINT particles of horseradish peroxidase, 200 nm x 200 nm cylinders”, the “retention of biological structure and function after molding (enzyme activity)” value was “retains biological structure and function”.
